Substitutions are numbered along the chain they refer to.
T1: hu-CD74 antigen (R&D SYSTEMS catalog #3590-CD-050) (human, UniProt P04233-2 73-232, limits assumed)
T1 construct: Bought antigen; also called rhCD74; human CD74
T1 sequence (looked up): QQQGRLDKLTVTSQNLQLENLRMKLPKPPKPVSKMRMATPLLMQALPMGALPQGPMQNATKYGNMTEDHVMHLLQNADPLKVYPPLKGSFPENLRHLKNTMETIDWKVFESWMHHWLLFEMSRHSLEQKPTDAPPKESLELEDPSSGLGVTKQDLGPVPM

B1: 1193-C08 (scFv)
scFv: EVQLLESGGGLVQPGGSLRLSCAASGFTFNNNWMSWVRQAPGKGLEWVGIINGDDGYTYYADRVKGRFTIIRDNSKNTLYLQMNSLRAEDTAVYYCAKVALGRPRRFDYWGQGTLVTVSSGGGGSGGGGSGGGGSEIVLTQSPGTLSLTPGERATLSCRASQSVSSNYLAWYQQKPGQAPRLLIYGASSRATGIPDRFSGSGSGTDFTLTISRLEPEDFAMYYCQQHYTTPPTFGQGTKVEIK
notes: Called scFv clone
B2: 1193-E06b (scFv)
scFv: EVQLLESGGGLVQPGGSLRLSCAASGFTFNNTDMSWVRQAPGKGLEWVGIINGSGGATNYADSVKGRFTISRDNSKNTLYLQMNSLRAEDTAVYYCAKFENEWEVSMDYWGQGTLVTVSSGGGGSGGGGSGGGGSEIVLTQSPGTLSLSPGERATLSCRASQSVSSSYLAWYQQKPGQAPRLLIYGASSRATGIPDRFSGSGSGTDFTLTISRLEPEDFAVYYCQQHYTTPPTFGQGTKVEIK
notes: Called scFv clone
B3: 1337-A05 light chain paired with VH 1251-A06 (SEQ ID NO: 236) (Fab, V domains shown)
VH: QVQLVESGGGVVQPGRSLRLSCAASGFDFSSYGMHWVRQAPDKGLEWVAVIWDDGSDRYYADSVKGRFTISRDNSKNTLYLQMNSLRAEDTAVYYCARGGTRVLGAIHGTDVWGQGTTVTVSS
VL: DIQMTQSPSSLSASVGDRVTITCRASQGIGRWVAWYQQKPEKAPKSLIYGADRLQSGVPSRFSGSGSGTDFTLTISSLQPEDFATYYCQQYNSYPLTFGGGTKVEIK
notes: 'in Fab format'
B4: 1337-A04 light chain paired with VH 1251-A06 (SEQ ID NO: 236) (Fab, V domains shown)
VH: B3 VH
VL: B3 VL with G28D, D52S, R53S, S93T
notes: 'in Fab format'
B5: 1337-A09 light chain paired with VH 1251-A06 (SEQ ID NO: 236) (Fab, V domains shown)
VH: B3 VH
VL: B3 VL with R31S, V33L, G50A, N92H, S93T
notes: 'in Fab format'
B6: 1337-A07 light chain paired with VH 1251-A06 (SEQ ID NO: 236) (Fab, V domains shown)
VH: B3 VH
VL: B3 VL with G30S, R31S, D52S, N92H, S93T
notes: 'in Fab format'
B7: 1337-A08 light chain paired with VH 1251-A06 (SEQ ID NO: 236) (Fab, V domains shown)
VH: B3 VH
VL: B3 VL with G28D, R31S, G50A, A51S, R53S
notes: 'in Fab format'
B8: 1337-A10 light chain paired with VH 1251-A06 (SEQ ID NO: 236) (Fab, V domains shown)
VH: B3 VH
VL: B3 VL with G30S, R31S, A51S, D52S, S93T
notes: 'in Fab format'
B9: 1337-A06 light chain paired with VH 1251-A06 (SEQ ID NO: 236) (Fab, V domains shown)
VH: B3 VH
VL: B3 VL with G28D, R31S
notes: 'in Fab format'
B10: 1275-G02 light chain paired with HC 1251-F07 (SEQ ID NO: 311) (antibody, human IgG1, V domains shown)
VH: B3 VH with D28T, Y32H, D57N, R58E, Y59V, V103I, L104R, A106L, I107R, H108Y
VL: B3 VL with I29L, R31S, W32F, V33L, G50L, A51G, D52N, R53L, S56I, S93A
B11: 1251-A02 heavy chain paired with VL SEQ ID NO: 272 (antibody, V domains shown)
VH: QVQLVESGGGVVQPGRSLRLSCAASGFAFSDHGMHWVRQAPDKGLEWVAVIWYDGSHKIYADSVKGRFTISRDNSKNTLYLQMNSLRAEDTAVYYCARGGSLAGGAVYGTDVWGQGTTVTVSS
VL: B3 VL with G30S, R31S, V33L, G50A, D52S, R53S
notes: Selected from a Fab library; VH3-33 / Vk1-12
B12: 1251-C03 heavy chain paired with VL SEQ ID NO: 272 (antibody, V domains shown)
VH: QVQLVESGGGVVQPGRSLRLSCAASGFNFSSYGMHWVRQAPDKGLEWVAVIWYDGSIKNYADSVKGRFTISRDNSKNTLYLQMNSLRAEDTAVYYCARGGALMRGEFSGHDVWGQGTTVTVSS
VL: B3 VL with G30S, R31S, V33L, G50A, D52S, R53S
B13: 1251-A06 heavy chain paired with VL SEQ ID NO: 272 (antibody, V domains shown)
VH: B3 VH
VL: B3 VL with G30S, R31S, V33L, G50A, D52S, R53S
B14: 1251-E06 heavy chain paired with VL SEQ ID NO: 272 (antibody, V domains shown)
VH: QVQLVESGGGVVQPGRSLRLSCAASGFTFDSYGMHWVRQAPDKGLEWVAVIWYDGSNKVYADSVKGRFTISRDNSKNTLYLQMNSLRAEDTAVYYCARGGMVGQGAMFGLDVWGQGTTVTVSS
VL: B3 VL with G30S, R31S, V33L, G50A, D52S, R53S
B15: 1275-C10 light chain paired with HC 1251-A06 (SEQ ID NO: 310) (antibody)
heavy: not shown
VL: B3 VL with I29V, G30S, R31S, V33L, G50S, D52R, R53Y, S93L
B16: 1251-A03 heavy chain paired with VL SEQ ID NO: 272 (antibody, V domains shown)
VH: B11 VH
VL: B3 VL with G30S, R31S, V33L, G50A, D52S, R53S
B17: 1251-F06 heavy chain paired with VL SEQ ID NO: 272 (antibody, V domains shown)
VH: QVQLVESGGGVVQPGRSLRLSCAASGFTFSSFGMHWVRQAPDKGLEWVAVIWYDGSNEYYADSVKGRFTISRDNSKNTLYLQMNSLRAEDTAVYYCARGGSLVTRGVYGLDVWGQGTTVTVSS
VL: B3 VL with G30S, R31S, V33L, G50A, D52S, R53S
B18: 1251-B08 heavy chain paired with VL SEQ ID NO: 272 (antibody, V domains shown)
VH: B11 VH with A28N, H32Y, H57I, K58S, I59Y, S101T, L102V, A103E, G104H, T117A
VL: B3 VL with G30S, R31S, V33L, G50A, D52S, R53S
B19: 1251-G02 heavy chain paired with VL SEQ ID NO: 272 (antibody, V domains shown)
VH: B3 VH with D28T, D53H, D57K, R58D, T101Q, R102L, V103D, L104H, H108Y, T110L
VL: B3 VL with G30S, R31S, V33L, G50A, D52S, R53S
B20: 1275-D01 light chain paired with HC 1251-A06 (SEQ ID NO: 310) (antibody, human IgG1, V domains shown)
VH: B3 VH
VL: B3 VL with V33L, A51R, D52S, R53S, S93I
B21: 1251-B09 heavy chain paired with VL SEQ ID NO: 272 (antibody, V domains shown)
VH: QVQLVESGGGVVQPGRSLRLSCAASGFNFSDYGMHWVRQAPDKGLEWVAVTWYDGSREYYADSVKGRFTISRDNSKNTLYLQMNSLRAEDTAVYYCARGGTLVHGALYGNDVWGQGTTVTVSS
VL: B3 VL with G30S, R31S, V33L, G50A, D52S, R53S
B22: 1251-D06 heavy chain paired with VL SEQ ID NO: 272 (antibody, V domains shown)
VH: B21 VH with N28S, S30G, D31S, T51V, R57K, E58T, Y59I, H104R, L107V, N110L
VL: B3 VL with G30S, R31S, V33L, G50A, D52S, R53S
B23: 1251-D02 heavy chain paired with VL SEQ ID NO: 272 (antibody, V domains shown)
VH: B3 VH with D28S, S30A, Y32H
VL: B3 VL with G30S, R31S, V33L, G50A, D52S, R53S
B24: 1251-F07 heavy chain paired with VL SEQ ID NO: 272 (antibody, V domains shown)
VH: B3 VH with D28T, Y32H, D57N, R58E, Y59V, V103I, L104R, A106L, I107R, H108Y
VL: B3 VL with G30S, R31S, V33L, G50A, D52S, R53S
B25: 1275-D10 light chain paired with HC 1251-A06 (SEQ ID NO: 310) (antibody, human IgG1, V domains shown)
VH: B3 VH
VL: B3 VL with I29V, G30F, R31S, V33L, G50N, D52T, R53Q, N92Y, S93Y
B26: 1251-D09 heavy chain paired with VL SEQ ID NO: 272 (antibody, V domains shown)
VH: B3 VH with D28S, D53Y, G55A, D57I, Y59K, D62G, R102V, V103E, L104R, H108Y
VL: B3 VL with G30S, R31S, V33L, G50A, D52S, R53S

Molecular target: T1, hu-CD74 antigen (R&D SYSTEMS catalog …)
Assay: SPR (Biacore T200), captured on anti-human Fc, rhCD74 analyte

Binder | Kd | koff | kon
B1 | 78.2 nM | 0.00908 s⁻¹ | 116000 M⁻¹ s⁻¹
B2 | 0.668 nM | 0.000651 s⁻¹ | 975000 M⁻¹ s⁻¹

Molecular target: T1, hu-CD74 antigen (R&D SYSTEMS catalog …)
Assay: as above
Remark: another data set of the same source

Binder | Kd | koff | kon
B3 | 0.179 nM | 0.000156 s⁻¹ | 869000 M⁻¹ s⁻¹
B4 | 0.158 nM | 0.000123 s⁻¹ | 775000 M⁻¹ s⁻¹
B5 | 0.135 nM | 0.000134 s⁻¹ | 994000 M⁻¹ s⁻¹
B6 | 0.18 nM | 0.000141 s⁻¹ | 785000 M⁻¹ s⁻¹
B7 | 0.178 nM | 0.000134 s⁻¹ | 749000 M⁻¹ s⁻¹
B8 | 0.172 nM | 0.000161 s⁻¹ | 935000 M⁻¹ s⁻¹
B9 | 0.184 nM | 0.000144 s⁻¹ | 785000 M⁻¹ s⁻¹

Molecular target: T1, hu-CD74 antigen (R&D SYSTEMS catalog …)
Assay: as above
Remark: another data set of the same source
Protocol: Kinetic binding experiments were performed at 25° C. using 1×HBS-EP+buffer. Kinetic data was collected by injecting test and control antibodies at concentrations of 10, 5 and 2.5 μg/mL for 12 s at a flow rate of 10 μl/min on flow cells 2, 3 and 4 respectively, followed by a buffer wash for 30 s at the same flow rate. Kinetic characterization of antibody samples was carried out with 8 concentrations of a 1:2 dilution series of rhCD74 antigen (R&D Systems) and 2 injections of 0 nM antigen (buffer only). […] Between each ligand capture and analyte binding cycle, regeneration was carried out using 2 injections of 3M MgCl₂ for 30 seconds at 30 μL/min, followed by a 30 second buffer wash step.

Binder | Kd | koff | kon
B10 | 0.528 nM | 0.000297 s⁻¹ | 563000 M⁻¹ s⁻¹
B11 | 0.2 nM | 0.000302 s⁻¹ | 1.51e+06 M⁻¹ s⁻¹
B12 | 1.63 nM | 0.00118 s⁻¹ | 722000 M⁻¹ s⁻¹
B13 | 0.114 nM | 9.99e-05 s⁻¹ | 873000 M⁻¹ s⁻¹
B14 | 0.376 nM | 0.000426 s⁻¹ | 1.13e+06 M⁻¹ s⁻¹
B15 | 0.26 nM | 0.000234 s⁻¹ | 901000 M⁻¹ s⁻¹
B16 | 0.184 nM | 0.000305 s⁻¹ | 1.65e+06 M⁻¹ s⁻¹
B17 | 0.363 nM | 0.000779 s⁻¹ | 2.15e+06 M⁻¹ s⁻¹
B18 | 0.224 nM | 0.000106 s⁻¹ | 475000 M⁻¹ s⁻¹
B19 | 0.651 nM | 0.00084 s⁻¹ | 1.29e+06 M⁻¹ s⁻¹
B20 | 0.721 nM | 0.000475 s⁻¹ | 659000 M⁻¹ s⁻¹
B21 | 0.225 nM | 0.000218 s⁻¹ | 968000 M⁻¹ s⁻¹
B22 | 0.0752 nM | 0.000173 s⁻¹ | 2.3e+06 M⁻¹ s⁻¹
B23 | 0.189 nM | 0.000167 s⁻¹ | 885000 M⁻¹ s⁻¹
B24 | 0.185 nM | 0.000125 s⁻¹ | 678000 M⁻¹ s⁻¹
B25 | 0.559 nM | 0.000235 s⁻¹ | 420000 M⁻¹ s⁻¹
B26 | 0.139 nM | 0.000137 s⁻¹ | 989000 M⁻¹ s⁻¹
